For 97 variants, protein stability index results are on record in the supplement of paper PMC10567573.

First the molecules themselves.
B1: APBB1IP (parent)
chain: SQVSMWDQRWQDHQPLLPITDVP
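Note: lentivirally expressed fusions sorted by FACS into six bins by GFP to DsRed ratio, PSI derived from sequencing read proportions per bin multiplied by bin number.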

In the data set the parent is B1. As to the kind of experiment: protein stability index of a GFP-peptide fusion (GPS, HEK-293T) (PSI 1-6); higher = more stable. To be noted: c terminus: native.
Take SQVSMWDQRWQDHQPLLPIHDVP: the protein stability index came out at 2.37.
Take SQVSMWDQRWQDHQPLLPIYDVP: the protein stability index came to 1.88.
Under SQVSMWDQRWQDHQPLLPIRDVP stands 2.32.
Regarding SQVSMWDQRWQDHQPLLPIIDVP, the protein stability index is 1.79.
As for SQVSMWDQRWQDHQPLLPIKDVP, the protein stability index is 3.24.
Under SQVSMWDQRWQDHQPLLPILDVP stands 1.92; under SQVSMWDQRWQDHQPLLPISDVP, 3.27; under SQVSMWDQRWQDHQPLLPIQDVP, 2.61.
Turning to TQVSMWDQRWQDHQPLLPITDVP, the protein stability index was determined as 2.04.
Consider RQVSMWDQRWQDHQPLLPITDVP, for which the protein stability index worked out at 2.23.
HQVSMWDQRWQDHQPLLPITDVP: the protein stability index worked out at 2.46.
To FQVSMWDQRWQDHQPLLPITDVP belongs 1.92; to NQVSMWDQRWQDHQPLLPITDVP, 2.19; to WQVSMWDQRWQDHQPLLPITDVP, 3.14.
Under KQVSMWDQRWQDHQPLLPITDVP stands 1.76; under MQVSMWDQRWQDHQPLLPITDVP, 1.96; under LQVSMWDQRWQDHQPLLPITDVP, 1.36.
Under SQVSMWMQRWQDHQPLLPITDVP stands 1.44; under SQVSMWGQRWQDHQPLLPITDVP, 1.49.
In the case of SQVSMWCQRWQDHQPLLPITDVP, the protein stability index is 2.37.
Under SQVSMWAQRWQDHQPLLPITDVP stands 3.25; under SQVSMWRQRWQDHQPLLPITDVP, 1.77; under SQVSMWFQRWQDHQPLLPITDVP, 1.23.
To SQVSMWYQRWQDHQPLLPITDVP belongs 2; to SQVSMWDQRWQDHQPLSPITDVP, 2.34.
As for SQVSMWDQRWQDHQPLDPITDVP, the protein stability index is 3.79.
Under SQVSMWDQRWQDHQPLCPITDVP stands 2.06; under SQVSMWDQRWQDHQPLFPITDVP, 2.06.
Turning to SQVSMWDQRWQDHQPLTPITDVP, the protein stability index was 2.58.
To SQVSMWDQRWQDHQPLIPITDVP belongs 1.85.
Take SQVSMWDQRWQDHQPLWPITDVP: the protein stability index was 2.96.
Under SQVSMWDQRWQDHQPLKPITDVP stands 3.67; under SQVSMWDQRWQDHQPLAPITDVP, 3.32.
Under SQVSMWDQRWQDHQPLVPITDVP stands 2.71.
Under SQVSMWDQRWQDHQPNLPITDVP stands 3.54; under SQVSMWDQRWQDHQPQLPITDVP, 2.73.
Turning to SQVSMWDQRWQDHQPRLPITDVP, the protein stability index came out at 2.61.
Under SQVSMWDQRWQDHQPFLPITDVP stands 3.4; under SQVSMWDQRWQDHQPVLPITDVP, 2.54; under SQVSMWDQRWQDHQPWLPITDVP, 2.23.
Under SQVSMWDQRWQDHQPCLPITDVP stands 2.83.
In the case of SQVSMWDQRWQDHQPPLPITDVP, the protein stability index amounted to 2.38.
Under SQVSMWDQRWQDHQPKLPITDVP stands 3.08.
For the variant SQVSMWDQRWQDHQPSLPITDVP, the protein stability index amounted to 2.98.
To SQVSMWDQRWQDHQPELPITDVP belongs 3.38; to SQVSMWDQRWQDIQPLLPITDVP, 2.3.
Under SQVSMWDQRWQDEQPLLPITDVP stands 3.47; under SQVSMWDQRWQDPQPLLPITDVP, 2.23; under SQVSMWDQRWQDSQPLLPITDVP, 2.94.
As for SQVSMWDQRWQDWQPLLPITDVP, the protein stability index was determined as 1.5.
To SQVSMWDQRWQDRQPLLPITDVP belongs 2.58.
Under SQVSMWDQRWQDMQPLLPITDVP stands 1.99; under SQVSMWDQRWQDLQPLLPITDVP, 1.95; under SQVSMWDQRWQDKQPLLPITDVP, 2.76.
Under SQVSMWDQRWQDHQFLLPITDVP stands 2.2; under SQVSMWDQRWQDHQSLLPITDVP, 3.35.
For the variant SQVSMWDQRWQDHQILLPITDVP, the protein stability index was determined as 2.03.
Consider SQVSMWDQRWQDHQLLLPITDVP, for which the protein stability index is 2.06.
To SQVSMWDQRWQDHQKLLPITDVP belongs 2.82; to SQVSMWDQRWQDHQCLLPITDVP, 2.18; to SQVSMWDQRWQDHQDLLPITDVP, 4.41.
Under SQVSMWDQRWQDHQHLLPITDVP stands 2.07; under SQVSMWDQRWQDHQALLPITDVP, 2.23.
Under SQVSMWDQRWQDHQPLLPITDEP stands 3.45; under SQVSMWDQRWQDHQPLLPITDRP, 2.99; under SQVSMWDQRWQDHQPLLPITDWP, 2.19.
For SQVSMWDQRWQDHQPLLPITDSP, the protein stability index came out at 2.8.
SQVSMWDQRWQDHQPLLPITDYP: the protein stability index came out at 1.91.
For the variant SQVSMWDQRWQDHQPLLPITDKP, the protein stability index was found to be 3.37.
Under SQVSMWDQRWQDHQPLLPITDPP stands 2.83.
Turning to SQVSMWDQRWQDHQPLLPITDMP, the protein stability index amounted to 2.53.
Under SQVSMWDQRWQDHQPLLPITDNP stands 2.69; under SQVSMWDQRWQDHQPLLPITDLP, 2.43; under SQVSMWDQRWQDHQPLLPITDAP, 2.31.
Under SQVSMWDQRWQDHQPLLPITDTP stands 2.65; under SAVSMWDQRWQDHQPLLPITDVP, 1.88; under SKVSMWDQRWQDHQPLLPITDVP, 2.57.
Under SGVSMWDQRWQDHQPLLPITDVP stands 2.07; under SPVSMWDQRWQDHQPLLPITDVP, 2.83.
Turning to SDVSMWDQRWQDHQPLLPITDVP, the protein stability index is 3.38.
To STVSMWDQRWQDHQPLLPITDVP belongs 2.54.
To SCVSMWDQRWQDHQPLLPITDVP belongs 1.94.
To SMVSMWDQRWQDHQPLLPITDVP belongs 3.18; to SSVSMWDQRWQDHQPLLPITDVP, 1.88.
Consider SVVSMWDQRWQDHQPLLPITDVP, for which the protein stability index was determined as 2.33.
For SQVSMWDQRWQDHNPLLPITDVP, the protein stability index was found to be 2.89.
Under SQVSMWDQRWQDHCPLLPITDVP stands 3.58.
To SQVSMWDQRWQDHVPLLPITDVP belongs 2.23; to SQVSMWDQRWQDHLPLLPITDVP, 2; to SQVSMWDQRWQDHKPLLPITDVP, 2.28.
Under SQVSMWDQRWQDHSPLLPITDVP stands 2.38; under SQVSMWDQRWQDHQPLLQITDVP, 1.71.
On to SQVSMWDQRWQDHQPLLWITDVP, for which the protein stability index amounted to 1.28.
To SQVSMWDQRWQDHQPLLSITDVP belongs 2.12.
To SQVSMWDQRWQDHQPLLAITDVP belongs 2.91.
To SQVSMWDQRWQDHQPLLKITDVP belongs 2.1; to SQVSMWDQRWQDHQPLLNITDVP, 2.56.
